Experimental data published in patent US20250026792A1, “SELF-ASSEMBLING PEPTIDES WITH HYALURONIC ACID BINDING DOMAINS AND METHODS OF USE THEREOF” (Northwestern University, priority 2022, published 2025).
Entries after “also recorded” stand apart in the source; their conditions may differ. The star is where a group is joined. Biotin = O=C1N[C@H]2[C@H](CS[C@H]2CCCCC(=O)*)N1

T1: collagen type III (Homo sapiens, UniProt P02461)
T1 construct: purchased Sigma-Aldrich
T1 sequence (P02461 154-1221 limits assumed): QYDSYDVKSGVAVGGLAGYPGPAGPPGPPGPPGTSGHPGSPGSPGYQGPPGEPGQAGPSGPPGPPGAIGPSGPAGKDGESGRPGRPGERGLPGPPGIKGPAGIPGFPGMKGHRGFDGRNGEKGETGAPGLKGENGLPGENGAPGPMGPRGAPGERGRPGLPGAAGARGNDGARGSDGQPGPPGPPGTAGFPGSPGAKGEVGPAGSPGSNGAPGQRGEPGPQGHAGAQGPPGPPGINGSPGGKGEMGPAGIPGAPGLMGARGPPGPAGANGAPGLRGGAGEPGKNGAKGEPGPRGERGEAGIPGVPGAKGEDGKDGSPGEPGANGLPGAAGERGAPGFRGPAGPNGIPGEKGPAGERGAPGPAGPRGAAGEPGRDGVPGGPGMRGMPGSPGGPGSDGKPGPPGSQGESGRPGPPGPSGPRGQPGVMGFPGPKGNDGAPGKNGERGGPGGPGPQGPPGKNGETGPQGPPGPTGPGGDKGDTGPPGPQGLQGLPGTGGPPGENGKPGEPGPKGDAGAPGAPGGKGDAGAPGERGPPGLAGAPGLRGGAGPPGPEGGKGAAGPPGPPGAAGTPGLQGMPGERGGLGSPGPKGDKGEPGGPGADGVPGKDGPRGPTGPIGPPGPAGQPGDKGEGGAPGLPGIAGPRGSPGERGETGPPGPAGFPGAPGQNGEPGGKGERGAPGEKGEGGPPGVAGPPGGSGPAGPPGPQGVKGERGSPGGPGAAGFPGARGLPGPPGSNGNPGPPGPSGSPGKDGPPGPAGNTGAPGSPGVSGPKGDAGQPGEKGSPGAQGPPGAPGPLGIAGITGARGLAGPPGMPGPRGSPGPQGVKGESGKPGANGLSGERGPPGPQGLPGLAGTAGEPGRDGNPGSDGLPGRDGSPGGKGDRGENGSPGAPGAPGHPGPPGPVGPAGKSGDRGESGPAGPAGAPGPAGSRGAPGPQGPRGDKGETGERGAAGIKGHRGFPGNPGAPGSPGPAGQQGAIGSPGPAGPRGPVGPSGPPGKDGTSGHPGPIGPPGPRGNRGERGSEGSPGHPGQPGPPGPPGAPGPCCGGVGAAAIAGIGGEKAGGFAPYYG

T2: elastin (Bos taurus, UniProt P04985)
T2 construct: purchased Sigma-Aldrich
T2 sequence (P04985 27-747): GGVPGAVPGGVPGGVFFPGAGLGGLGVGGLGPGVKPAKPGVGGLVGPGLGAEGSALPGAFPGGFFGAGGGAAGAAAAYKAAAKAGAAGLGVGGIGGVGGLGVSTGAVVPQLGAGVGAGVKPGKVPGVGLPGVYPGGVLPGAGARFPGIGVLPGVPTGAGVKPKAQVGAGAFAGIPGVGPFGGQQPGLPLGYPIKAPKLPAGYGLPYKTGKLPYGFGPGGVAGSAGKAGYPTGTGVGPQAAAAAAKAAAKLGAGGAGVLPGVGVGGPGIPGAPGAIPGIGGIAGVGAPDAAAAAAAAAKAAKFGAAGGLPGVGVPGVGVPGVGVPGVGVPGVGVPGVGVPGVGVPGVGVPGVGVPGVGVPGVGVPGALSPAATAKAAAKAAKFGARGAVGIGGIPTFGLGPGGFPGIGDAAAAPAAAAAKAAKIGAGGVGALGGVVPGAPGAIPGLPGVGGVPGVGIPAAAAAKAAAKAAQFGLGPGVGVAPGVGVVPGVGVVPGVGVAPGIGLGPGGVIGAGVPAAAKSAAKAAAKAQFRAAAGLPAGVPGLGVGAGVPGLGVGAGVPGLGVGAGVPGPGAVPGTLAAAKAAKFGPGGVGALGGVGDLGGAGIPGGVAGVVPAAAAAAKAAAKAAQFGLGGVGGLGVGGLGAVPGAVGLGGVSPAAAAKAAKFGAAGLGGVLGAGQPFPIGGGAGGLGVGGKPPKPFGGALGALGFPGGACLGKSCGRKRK

T3: elastin (bovine) (bovine, UniProt P04985 27-747, limits assumed)
T3 construct: Coated and dried on plates at 10 ug/cm2
T3 sequence (looked up): T2 sequence (P04985 27-747)

T4: collagen type III (human) (human, UniProt P02461 154-1221)
T4 construct: III (human)'; Coated and dried on plates at 10 ug/cm2; also called collagen III
T4 sequence (looked up): T1 sequence (P02461 154-1221 limits assumed)

B1: Peptide 10K (peptide)
peptide: Biotin-TKAKIKHSVKLKAKLRIKLVKRI-OH
SMILES: CC[C@H](C)[C@H](NC(=O)[C@H](CCCNC(=N)N)NC(=O)[C@H](CCCCN)NC(=O)[C@@H](NC(=O)[C@H](CC(C)C)NC(=O)[C@H](CCCCN)NC(=O)[C@@H](NC(=O)[C@H](CCCNC(=N)N)NC(=O)[C@H](CC(C)C)NC(=O)[C@H](CCCCN)NC(=O)[C@H](C)NC(=O)[C@H](CCCCN)NC(=O)[C@H](CC(C)C)NC(=O)[C@H](CCCCN)NC(=O)[C@@H](NC(=O)[C@H](CO)NC(=O)[C@H](Cc1c[nH]cn1)NC(=O)[C@H](CCCCN)NC(=O)[C@@H](NC(=O)[C@H](CCCCN)NC(=O)[C@H](C)NC(=O)[C@H](CCCCN)NC(=O)[C@@H](NC(=O)CCCC[C@@H]1SC[C@@H]2NC(=O)N[C@@H]21)[C@@H](C)O)[C@@H](C)CC)C(C)C)[C@@H](C)CC)C(C)C)C(=O)O
notes: 23-residue designed peptide; biotinylated synthetic peptide

Legend:
[1] = target: T5, collagen type I (Rattus norvegicus, UniProt P02454+P02466); assay: ECM specificity binding test, collagen type I coating; conditions: 5.0 mg/ml peptide, FIG. 4
T5 construct: purchased Sigma-Aldrich
Protocol: (§1) Peptides were incubated 24 hours at 37° C. on collagens I-IV, elastin, hyaluronic acid, and Geltrex. Coatings (10 pig/cm^2) were previously dried overnight in milli-Q water. Overall significance was assessed using analysis of variance, with Tukey's multiple comparison post-hoc analysis between ECM groups where n=4.
(§2) Biotinylated peptides were custom synthesized by ABI Scientific, Inc. (Sterling, VA). Uranyl acetate and TEM grids were from Ted Pella, Inc (Redding, CA). Unless specified otherwise, all water used in these experiments was Milli-Q grade. HA (˜1 MDa), collagen types I (rat), II (chicken), III (human), and IV (mouse), elastin (bovine), deuterium oxide (D2O), acetic acid-d4, sodium acetate-d3, 3-(Trimethylsilyl)propionic-2,2,3,3-d6 (DSS-D6) acid sodium salt, and 2,2,2-trifluoroethanol (TFE) and were obtained from Sigma-Aldrich (St. Louis, MO). Streptavidin (Alexa Fluor 488 conjugate) and Geltrex were obtained from Thermo Fisher Scientific Inc. (Waltham, MA). […]
(§3) Hyaluronic acid, collagens I, II, III, and IV, elastin, and Geltrex were coated onto 96-well black plates (medium binding affinity) at 10 μg/cm^2 and were dried in milli-Q water at room temperature. […] The plates were read with a fluorescence microplate reader for fluorescence intensity (Ex 490 nm, Em 525 nm). All data were normalized to the background fluorescence intensity of Streptavidin-488.

[2] = target: T6, collagen type II (Gallus gallus, UniProt P02460); assay: ECM specificity binding test, collagen type II coating; design: species or system chicken; conditions: 5.0 mg/ml peptide, FIG. 4
T6 construct: purchased Sigma-Aldrich
Protocol: as §1, §2, §3

[3] = target: T1, collagen type III; assay: ECM specificity binding test, collagen type III coating; conditions: 5.0 mg/ml peptide, FIG. 4
Protocol: as §1, §2, §3

[4] = target: T2, elastin; assay: ECM specificity binding test, elastin coating; design: species or system bovine; conditions: 5.0 mg/ml peptide, FIG. 4
Protocol: as §1
Biotinylated peptides were custom synthesized by ABI Scientific, Inc. (Sterling, VA). Uranyl acetate and TEM grids were from Ted Pella, Inc (Redding, CA). Unless specified otherwise, all water used in these experiments was Milli-Q grade. HA (˜1 MDa), collagen types I (rat), II (chicken), III (human), and IV (mouse), elastin (bovine), deuterium oxide (D2O), acetic acid-d4, sodium acetate-d3, 3-(Trimethylsilyl)propionic-2,2,3,3-d6 (DSS-D6) acid sodium salt, and 2,2,2-trifluoroethanol (TFE) and were obtained from Sigma-Aldrich (St. Louis, MO). Streptavidin (Alexa Fluor 488 conjugate) and Geltrex were obtained from Thermo Fisher Scientific Inc. (Waltham, MA). Sodium hyaluronate (5 and 60 KDa) was purchased from Lifecore Biomedical LLC (Chaska, MN). In reference to terminology, N and C termini is used to describe the amino terminal (N) and the carboxyl terminal (C) of the peptide. The biotinylated peptides are used in every experiment.
(§4) Hyaluronic acid, collagens I, II, III, and IV, elastin, and Geltrex were coated onto 96-well black plates (medium binding affinity) at 10 μg/cm^2 and were dried in milli-Q water at room temperature. N-termini biotinylated peptides were added to coated plates at 0, 1, 2.5, 5 and 10 mg/ml overnight at 37° C. in phosphate buffered saline (PBS), pH 7.4, after which the plates were washed three times with PBS. Fluorescent streptavidin-488 (4 μg/mL) was added to each well and incubated at 37° C. temperature for 24 hours, then thoroughly washed with PBS. The plates were read with a fluorescence microplate reader for fluorescence intensity (Ex 490 nm, Em 525 nm). All data were normalized to the background fluorescence intensity of Streptavidin-488.

[5] = test system: extracellular matrix (ECM) components: Collagen type I, II, III and IV, elastin, hyaluronic acid and Geltrex; assay: ECM specificity binding test, whole panel; conditions: 5.0 mg/ml peptide, FIG. 4
[6] = Circular dichroism (CD) of peptides; format: physicochemical; conditions: 20 mM Sodium Cacodylate; for Ellipticity ratio (222 nm/208 nm) / Ellipticity 208 nm / Ellipticity 222 nm: 1.25 mg/mL; for Ellipticity 208 nm / Ellipticity 222 nm: CD data given as [θ]M×10^−3; for wavelength Minimum of CD profile: 5.0 mg/mL
[7] = Transmission electron microscopy (TEM) of peptide nanostructures; format: physicochemical; conditions: for TEM characterization, Phosphate Buffered Saline (i): PBS pH 7.4, 0.5% w/v, 30 minutes sonication, 24 hrs at 37° C.
Protocol: The sample and stain were filter-dried in between steps. Samples were collected 24 hours at 37° C. after 30 minutes of sonication. All TEM was performed on a Philips FEI Technai Spirit G2 electron microscope. Peptides were incubated in both PBS and SC.

[8] = Concentration-dependent peptide binding to hyaluronic acid coating (biotin-streptavidin fluorescence)
Protocol: Peptides were incubated 24 hours at 37° C. Coatings (10 μg/cm^2) were previously dried overnight in milli-Q water. Overall significance was assessed using analysis of variance, with Tukey's multiple comparison post-hoc analysis between 1-scrm and experimental groups where n=4.
N-termini biotinylated peptides were added to coated plates at 0, 1, 2.5, 5 and 10 mg/ml overnight at 37° C. in phosphate buffered saline (PBS), pH 7.4, after which the plates were washed three times with PBS.

[9] = ECM specificity binding test, hyaluronic acid coating; conditions: 5.0 mg/ml peptide, FIG. 4
Protocol: as §1, §4

[10] = target: T7, collagen type IV (Mus musculus, UniProt P02463+P08122); assay: ECM specificity binding test, collagen type IV coating; conditions: 5.0 mg/ml peptide, FIG. 4
T7 construct: purchased Sigma-Aldrich
Protocol: as §1, §2, §3

[11] = test system: Geltrex; assay: ECM specificity binding test, Geltrex coating; conditions: 5.0 mg/ml peptide, FIG. 4
Protocol: as §1, §2, §3

[12] = target: T3, elastin (bovine); assay: plate assay: biotinylated peptide (5.0 mg/ml) on dried ECM coating, streptavidin-488 fluorescence
Protocol: (§5) Peptides were incubated 24 hours at 37° C. on collagens I-IV, elastin, hyaluronic acid, and Geltrex. Coatings (10 pig/cm²) were previously dried overnight in milli-Q water. Overall significance was assessed using analysis of variance, with Tukey's multiple comparison post-hoc analysis between ECM groups where n=4.
(§6) N-termini biotinylated peptides were added to coated plates at 0, 1, 2.5, 5 and 10 mg/ml overnight at 37° C. in phosphate buffered saline (PBS), pH 7.4, after which the plates were washed three times with PBS. Fluorescent streptavidin-488 (4 μg/mL) was added to each well and incubated at 37° C. temperature for 24 hours, then thoroughly washed with PBS. The plates were read with a fluorescence microplate reader for fluorescence intensity (Ex 490 nm, Em 525 nm). All data were normalized to the background fluorescence intensity of Streptavidin-488.

[13] = target: T4, collagen type III (human); assay: as above
Protocol: as §5, §6

T6 sequence (P02460 whole entry): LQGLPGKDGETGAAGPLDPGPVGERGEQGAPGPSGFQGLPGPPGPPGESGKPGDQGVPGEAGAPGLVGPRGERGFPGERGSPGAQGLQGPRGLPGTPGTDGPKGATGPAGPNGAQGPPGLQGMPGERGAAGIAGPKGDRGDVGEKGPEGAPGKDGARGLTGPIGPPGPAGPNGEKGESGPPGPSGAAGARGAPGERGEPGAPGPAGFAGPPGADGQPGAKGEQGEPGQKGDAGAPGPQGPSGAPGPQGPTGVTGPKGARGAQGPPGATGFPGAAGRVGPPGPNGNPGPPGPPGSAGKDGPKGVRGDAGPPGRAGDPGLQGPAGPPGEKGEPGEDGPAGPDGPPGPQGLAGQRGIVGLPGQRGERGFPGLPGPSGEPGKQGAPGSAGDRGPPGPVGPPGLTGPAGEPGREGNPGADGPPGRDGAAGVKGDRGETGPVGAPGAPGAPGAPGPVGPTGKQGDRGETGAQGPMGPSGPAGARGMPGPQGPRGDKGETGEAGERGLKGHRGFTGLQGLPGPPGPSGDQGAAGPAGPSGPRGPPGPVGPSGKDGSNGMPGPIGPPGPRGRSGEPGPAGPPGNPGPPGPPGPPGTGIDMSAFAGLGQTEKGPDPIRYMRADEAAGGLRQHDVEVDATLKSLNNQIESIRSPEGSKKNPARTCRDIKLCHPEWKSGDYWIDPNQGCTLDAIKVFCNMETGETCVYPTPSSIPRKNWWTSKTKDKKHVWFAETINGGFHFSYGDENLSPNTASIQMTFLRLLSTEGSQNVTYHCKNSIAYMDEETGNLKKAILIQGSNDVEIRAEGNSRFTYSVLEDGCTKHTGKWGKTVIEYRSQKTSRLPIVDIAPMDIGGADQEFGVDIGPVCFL
T7 sequence (P02463 173-1669): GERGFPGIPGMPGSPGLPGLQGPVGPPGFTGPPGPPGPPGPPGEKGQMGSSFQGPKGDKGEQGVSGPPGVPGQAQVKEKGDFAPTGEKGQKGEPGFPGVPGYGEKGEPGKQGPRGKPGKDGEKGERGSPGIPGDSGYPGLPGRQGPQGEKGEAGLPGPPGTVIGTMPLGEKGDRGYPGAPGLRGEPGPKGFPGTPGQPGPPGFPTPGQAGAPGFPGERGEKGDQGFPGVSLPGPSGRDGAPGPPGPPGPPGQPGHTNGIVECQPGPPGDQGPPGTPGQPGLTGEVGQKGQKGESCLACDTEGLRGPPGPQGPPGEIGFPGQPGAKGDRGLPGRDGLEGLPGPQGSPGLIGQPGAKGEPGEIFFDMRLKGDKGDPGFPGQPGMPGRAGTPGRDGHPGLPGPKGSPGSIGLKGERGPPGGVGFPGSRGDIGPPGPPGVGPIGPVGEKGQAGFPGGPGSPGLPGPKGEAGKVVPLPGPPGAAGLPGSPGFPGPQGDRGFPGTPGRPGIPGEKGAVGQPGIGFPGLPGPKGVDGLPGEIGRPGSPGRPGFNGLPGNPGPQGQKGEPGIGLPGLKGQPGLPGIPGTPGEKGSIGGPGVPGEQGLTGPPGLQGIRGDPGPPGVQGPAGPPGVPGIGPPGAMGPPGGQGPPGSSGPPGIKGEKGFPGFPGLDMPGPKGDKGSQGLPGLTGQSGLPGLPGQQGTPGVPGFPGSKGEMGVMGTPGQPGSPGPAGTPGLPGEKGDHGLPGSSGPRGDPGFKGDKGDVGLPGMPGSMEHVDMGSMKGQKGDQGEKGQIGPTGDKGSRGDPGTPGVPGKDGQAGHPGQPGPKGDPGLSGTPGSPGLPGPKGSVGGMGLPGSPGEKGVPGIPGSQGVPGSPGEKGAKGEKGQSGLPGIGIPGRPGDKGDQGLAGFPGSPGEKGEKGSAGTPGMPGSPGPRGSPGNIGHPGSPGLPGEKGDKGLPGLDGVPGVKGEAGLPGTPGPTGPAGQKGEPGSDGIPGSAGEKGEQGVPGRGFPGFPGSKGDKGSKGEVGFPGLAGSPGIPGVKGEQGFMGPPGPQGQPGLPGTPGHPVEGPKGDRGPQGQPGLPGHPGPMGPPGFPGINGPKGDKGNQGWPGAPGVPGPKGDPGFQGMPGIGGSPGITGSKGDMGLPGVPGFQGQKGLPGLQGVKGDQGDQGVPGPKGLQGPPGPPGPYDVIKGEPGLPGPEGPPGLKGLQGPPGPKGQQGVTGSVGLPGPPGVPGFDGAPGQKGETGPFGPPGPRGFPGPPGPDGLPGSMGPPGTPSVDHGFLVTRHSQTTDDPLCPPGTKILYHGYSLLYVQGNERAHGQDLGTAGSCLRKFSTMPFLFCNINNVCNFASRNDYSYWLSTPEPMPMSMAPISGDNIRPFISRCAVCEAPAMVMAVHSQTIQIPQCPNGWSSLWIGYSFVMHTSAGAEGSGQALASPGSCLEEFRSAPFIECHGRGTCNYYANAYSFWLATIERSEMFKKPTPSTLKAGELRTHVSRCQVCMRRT
T7 sequence (P08122 29-1707 limits assumed): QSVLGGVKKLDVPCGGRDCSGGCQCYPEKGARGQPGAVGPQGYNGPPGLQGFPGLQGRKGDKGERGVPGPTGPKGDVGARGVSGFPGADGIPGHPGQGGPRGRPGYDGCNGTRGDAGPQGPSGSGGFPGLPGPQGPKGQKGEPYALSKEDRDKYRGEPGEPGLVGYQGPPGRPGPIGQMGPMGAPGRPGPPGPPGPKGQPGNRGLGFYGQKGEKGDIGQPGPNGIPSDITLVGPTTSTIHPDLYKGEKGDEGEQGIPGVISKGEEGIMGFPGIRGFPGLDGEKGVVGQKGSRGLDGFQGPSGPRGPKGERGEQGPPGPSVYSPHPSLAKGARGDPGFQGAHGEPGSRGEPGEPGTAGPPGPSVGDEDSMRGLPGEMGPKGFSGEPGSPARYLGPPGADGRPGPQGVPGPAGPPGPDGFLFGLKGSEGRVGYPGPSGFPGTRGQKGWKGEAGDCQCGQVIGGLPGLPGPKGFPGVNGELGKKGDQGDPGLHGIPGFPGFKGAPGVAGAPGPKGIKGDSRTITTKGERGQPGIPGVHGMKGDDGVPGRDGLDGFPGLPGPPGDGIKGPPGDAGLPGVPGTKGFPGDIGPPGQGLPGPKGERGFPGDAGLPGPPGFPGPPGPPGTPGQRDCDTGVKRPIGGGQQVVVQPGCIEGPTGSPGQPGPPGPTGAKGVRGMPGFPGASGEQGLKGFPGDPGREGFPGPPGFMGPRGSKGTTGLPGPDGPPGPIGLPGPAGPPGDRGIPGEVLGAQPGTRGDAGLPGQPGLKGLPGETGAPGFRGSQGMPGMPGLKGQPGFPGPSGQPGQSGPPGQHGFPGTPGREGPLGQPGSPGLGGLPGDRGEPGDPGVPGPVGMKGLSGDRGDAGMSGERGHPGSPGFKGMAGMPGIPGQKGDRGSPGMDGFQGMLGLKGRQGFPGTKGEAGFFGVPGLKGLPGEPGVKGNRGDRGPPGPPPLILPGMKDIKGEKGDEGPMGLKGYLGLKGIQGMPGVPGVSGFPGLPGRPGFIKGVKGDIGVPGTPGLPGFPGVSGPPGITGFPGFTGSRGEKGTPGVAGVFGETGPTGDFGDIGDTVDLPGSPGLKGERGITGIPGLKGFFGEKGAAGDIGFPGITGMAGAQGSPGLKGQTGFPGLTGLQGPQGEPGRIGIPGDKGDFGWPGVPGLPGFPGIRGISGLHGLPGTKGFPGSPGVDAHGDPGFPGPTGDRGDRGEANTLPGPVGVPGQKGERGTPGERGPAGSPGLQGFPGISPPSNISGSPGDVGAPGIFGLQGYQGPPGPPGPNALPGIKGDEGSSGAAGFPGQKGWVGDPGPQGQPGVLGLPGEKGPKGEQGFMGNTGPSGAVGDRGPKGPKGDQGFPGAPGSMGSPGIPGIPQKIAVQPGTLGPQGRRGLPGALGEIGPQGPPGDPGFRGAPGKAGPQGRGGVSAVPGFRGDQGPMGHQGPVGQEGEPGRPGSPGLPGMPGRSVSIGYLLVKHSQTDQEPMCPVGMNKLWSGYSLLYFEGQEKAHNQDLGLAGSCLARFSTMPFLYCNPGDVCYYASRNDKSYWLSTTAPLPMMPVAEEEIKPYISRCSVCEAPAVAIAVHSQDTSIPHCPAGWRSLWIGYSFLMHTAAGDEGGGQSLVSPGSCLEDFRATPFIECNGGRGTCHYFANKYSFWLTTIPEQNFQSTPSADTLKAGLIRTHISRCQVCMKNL

Row | Molecule | binding to collagen type II [2] | binding to elastin [4] | Ellipticity ratio (222 nm/208 nm) [6] | Ellipticity 208 nm [6] | Ellipticity 222 nm [6] | wavelength Minimum of CD profile [6] | wavelength Minimum of CD profile ([6]; 20% TFE) | TEM characterization, Phosphate Buffered Saline (i) [7] | other results
1 | TKAKIKHSVKLKAKLRIKLVKRI [Peptide 10K, five B(X7)B domains in 23 residues] | predominantly | predominantly | 0.67 | −113 | −75.3 | 224 nm | 223 nm | No structure | binding to collagen type I [1]: predominantly; binding to collagen type III [3]: predominantly; binding to the ECMs (for 17x-3: the ECMs other than hyaluronic acid) [5]: moderate binding; Ellipticity ratio (222 nm/208 nm) ([6]; 20% TFE): 0.83; Ellipticity 208 nm ([6]; 20% TFE): −235; Ellipticity 222 nm ([6]; 20% TFE): −194
2 | TNLRNKYTFLARARANLAVRNKQNIKS [BHP4, variant of BHP3] | moderately | moderately | 0.81 | −107 | −86.6 | 226 nm | 225 nm | form fibers with many striations that form larger fibers and the larger fibers tend to form a mesh network | binding to hyaluronic acid with increasing concentrations of peptide (fluorescence intensity) ([8]; 0-10 mg/ml peptide, PBS pH 7.4, 37° C., HA coating 10 μg/cm^2, FIG. 3): increases dramatically; HA binding, overall assessment ([8]; summary and discussion statements): comparable binding; also recorded: HA specific and robust binders; binding to hyaluronic acid in specificity testing [9]: binds; binding to collagen type IV [10]: moderately; binding to Geltrex [11]: moderately; specificity of binding to ECMs [5]: lowest specificity; nanofiber formation in TEM, overall ([7]; both PBS and sodium cacodylate): consistent nanofibers; also recorded: predominantly form fibers with striations and furthermore form a mesh network
3 | B1 | – | – | – | – | – | – | – | – | binding result [12]: binds; binding result [13]: binds
